Measurements from article PMC6632115.

Target: T1, colicin E3 (Escherichia coli) (UniProt P00646)
T1 sequence: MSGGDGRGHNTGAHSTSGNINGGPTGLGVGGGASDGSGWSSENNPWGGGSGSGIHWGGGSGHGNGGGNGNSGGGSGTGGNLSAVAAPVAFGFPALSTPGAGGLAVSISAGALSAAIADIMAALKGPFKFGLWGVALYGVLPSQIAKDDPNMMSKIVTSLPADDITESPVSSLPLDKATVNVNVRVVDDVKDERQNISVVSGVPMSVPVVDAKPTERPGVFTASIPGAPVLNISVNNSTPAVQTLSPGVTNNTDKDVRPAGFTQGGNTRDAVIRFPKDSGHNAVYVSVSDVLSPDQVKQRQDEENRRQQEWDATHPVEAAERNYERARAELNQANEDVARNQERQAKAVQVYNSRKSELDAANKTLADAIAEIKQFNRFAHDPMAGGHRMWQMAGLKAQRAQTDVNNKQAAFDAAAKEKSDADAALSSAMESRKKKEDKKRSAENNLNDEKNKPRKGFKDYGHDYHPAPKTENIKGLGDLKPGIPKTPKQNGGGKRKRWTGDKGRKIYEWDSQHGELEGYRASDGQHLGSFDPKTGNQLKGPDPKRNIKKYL

B1: E3 immunity protein, co-expressed with colicin E3 in CFPS (natural protein)
chain: MGLKLDLTWFDKSTEDFKGEEYSKDFGDDGSVMESLGVPFKDNVNNGCFDVIAEWVPLLQPYFNHQIDISDNEYFVSFDYRDGDW
With B1 the effective multiplicity m = -ln(S/S0) of cell killing of K361 indicator cells by 250 ng/mL colicin E3 co-expressed with the immunity protein was 13.5.
